Results from US11123408B2, “Compositions and methods for treating nonsteroidal anti-inflammatory drug (NSAID) associated coagulopathy, thrombocytopenia, glanzmann's thrombasthenia, and/or thrombosis” (YALE UNIVERSITY, priority 2011, dated 2021).

How the values were obtained:
[1] = test system: platelets in platelet rich plasma; assay: Light transmission aggregometry (LTA) in platelet rich plasma; format: cell-based, human
Procedure: Whole blood from healthy voluntary donors was collected in accordance with an IRB-approved protocol into blue top vacutainer tubes containing 3.2% sodium citrate. Blood was centrifuged at 1000 RPM for 10 minutes at room temperature to collect platelet rich plasma (PRP). PRP in the supernatant was then transferred to fresh tubes, and the remainder of the specimen was centrifuged at 4000 RPM for 10 minutes to obtain platelet poor plasma (PPP). PRP was adjusted to a final platelet count of 250×10^6 platelets/mL with autologous PPP for use in aggregation studies. Potential donors were excluded if there was a history of a bleeding disorder or current anticoagulant use and donors were instructed to avoid NSAIDs for at least 7 days prior to donation. Approval for the human subjects involved in this research was sought and granted by the Committee for the Protection of Human Subjects, Dartmouth-Hitchcock Medical Center, where these studies were conducted in accordance with the Declaration of Helsinki.
Light transmission (i.e., optical) and lumi aggregometry were performed on up to four samples from the same individual simultaneously with a Chrono-Log Model 700 Whole Blood/Optical Lumi Aggregometer (Chrono-Log Corporation, Havertown, Pa.) using procedures provided by the manufacturer that are briefly summarized here.
Platelet aggregation was determined by measuring the change in light transmittance of stirred PRP over time after addition of various agonists. Prior to each experiment the aggregometer was standardized to reflect 100% and 0% light transmittance with PPP and PRP, respectively, from the donor whose platelets were used in each specific experiment. 500 μL PRP was added to cuvettes containing a magnetic stir bar and allowed to pre-warm to 37° C. in the aggregometer wells for 3 minutes prior to initiating aggregation reactions which were then conducted at 37° C. Aggregation reactions were initiated by direct addition of agonists and/or enzymes to warmed, stirred PRP, and were monitored for an increase in light transmittance for 10 minutes. The increase in light transmittance is directly proportional to the amount of aggregation and is amplified and digitized into a computer (HP Compaq, Hewlett-Packard, Palo Alto, Calif.) with the AGGRO/LINK8 for Windows software (Chrono-Log Corporation, Havertown, Pa.) to generate aggregation curves. […] The platelet aggregometry experiments for all concentrations of MRS 2395 (including the 0 μM point) were conducted with the plasma adjusted to a final concentration of 10% DMSO to solubilize the inhibitor.

[2] = Ap3A hydrolysis by NPP enzymes (linked malachite green assay, absorbance change at 259 nm, HPLC); format: biochemical
Procedure: (§1) NPP4 nucleotide substrates were identified by directly detecting the free phosphate (Pi) product using malachite green (ADP substrate) or by a linked hydrolysis assay with alkaline phosphatase combined with malachite green (lipid substrates and nucleotide substrates without terminal P1) to measure released Pi. 50 μM substrate P1 equivalents (e.g. 25 μM ADP) were treated with 50 nM NPP4 for 1 hr 37 min (lipids) or 3 hr 15 min (all other substrates). For substrates without terminal phosphates, 10 units of calf intestinal alkaline phosphatase (M0290S, 10,000 units/mL, New England Biolabs, Ipswich, Mass.) was added for a final reaction volume of 50 μL. 100 μL of malachite green (BIOMOL GREEN™, Enzo Life Sciences, Plymouth Meeting, Pa.) was added to quench the reactions. The amount of phosphate released was measured by absorbance at 620 nm by a Biotek Synergy Mx plate reader (Winooski, Vt.) in 96-well plates (3679, Corning Inc., Corning, N.Y.) and compared against a phosphate standard curve.
(§2) The kinetics of the steady state Ap3A/Ap4A cleavage by NPP4 was measured from time courses of absorbance change at 259 nm using a UV spectrophotometer with a 0.1 cm optical path length cuvette or a stopped-flow device with a 0.2 cm optical path length cell. The enzymology reactions in 50 mM Tris pH 8.0, 140 mM NaCl, 5 mM KCl, 1 mM MgCl2 and 1 mM CaCl2 were started by addition of 1 μM NPP4 to varying concentrations of Ap3A/Ap4A (up to 800 μM) solution (UV spectrophotometer) or by rapid mixing of NPP4 and Ap3A/Ap4A (stopped-flow). The substrate concentrations higher than 800 μM have absorption too high to be measured by a UV spectrophotometer and stopped-flow, and were therefore measured by HPLC. […] Therefore, the rate of a product production or enzyme turnover measured by the absorption change assay can be calculated by the rate of absorption change
(§3) [formula] according to the following formula;
[formula] where Δl is optical path length. The following absorption coefficients were used: Ap3A: 25.75 mM^−1 cm^−1. Ap4A: 25.4 mM^−1 cm^−1. AMP, ADP, and ATP: 15.4 mM^−1 cm^−1. ADP Receptor Inhibitor Assay for NPP4 Inhibition
(§4) The HPLC protocol used to measure Ap3A/Ap4A cleavage by NPP4 and for product identification is modified from that of Stocchi et al. (1985, Anal Biochem 146:118-24). The reactions containing varying concentrations of Ap3A/Ap4A in the same buffer as in the absorbance change assay were started by addition of 0.2-1 μM NPP4 and quenched at various time points by equal volume of 3 M formic acid, or 0.5 N KOH and re-acidified by glacial acetic acid to pH 6. The quenched reaction solution was diluted systematically and loaded a HPLC system (Waters, Milford Mass.) and substrates and products were monitored by UV absorbance at 254 or 259 nm. Substrates and products were separated on a C18, 5 μm 250×4.6 mm HPLC column (Higgins Analytical, Mountain View, Calif.), using 15 mM ammonium acetate pH 6.0 solution, with a 0% to 10% (or 20%) methanol gradient. The products and substrate were quantified according to the integration of their correspondent peaks and the formula:
[formula] where [substrate]0 is the initial substrate concentration. The extinction coefficients of Ap3A, Ap4A, AMP, ADP and ATP used in the formula were the same as those used in absorption change assay. If monitoring at 254 nm, substrate and product standards run on the same day as the reactions were used to convert integrated product/substrate peak areas to concentrations. […]

[3] = Ap4A hydrolysis by NPP enzymes (linked malachite green assay, absorbance change at 259 nm, HPLC); format: biochemical
Procedure: as §1, §2, §3
[formula] where Δl is optical path length. The following absorption coefficients were used: Ap3A: 25.75 mM^−1 cm^−1. Ap4A: 25.4 mM^−1 cm^−1. […]
as §4, with “Substrates and products were separated on a C18, 5 μm 250×4.6 mm HPLC column (Higgins Analytical, Mountain View, Calif.), using 15 mM ammonium acetate pH 6.0 solution, with a 0% to 10% (or 20%) methanol gradient.” left out, “formula: […]” for “formula:”

- Ap3A cleavage / hydrolysis (qualitative) ([2]; linked assay or steady state enzymatic studies): detected cleavage
- Ap4A cleavage (qualitative) ([3]; linked alkaline phosphatase / malachite green assay): detected cleavage
B1: NPP4: soluble recombinant extracellular domain of human NPP4 (NCBI AAH18054.1, residues 1-407 of SEQ ID NO:1), expressed in insect cells (protein, listed as Homo sapiens)
chain: MKLLVILLFSGLITGFRSDSSSSLPPKLLLVSFDGFRADYLKNYEFPHLQNFIKEGVLVEHVKNVFITKTFPNHYSIVTGLYEESHGIVANSMYDAVTKKHFSDSNDKDPFWWNEAVPIWVTNQLQENRSSAAAMWPGTDVPIHDTISSYFMNYNSSVSFEERLNNITMWLNNSNPPVTFATLYWEEPDASGHKYGPEDKENMSRVLKKIDDLIGDLVQRLKMLGLWENLNVIITSDHGMTQCSQDRLINLDSCIDHSYYTLIDLSPVAAILPKINRTEVYNKLKNCSPHMNVYLKEDIPNRFYYQHNDRIQPIILVADEGWTIVLNESSQKLGDHGYDNSLPSMHPFLAAHGPAFHKGYKHSTINIVDIYPMMCHILGLKPHPNNGTFGHTKCLLVDQWCINLPEA
- maximum aggregation ([1]; 100 nM NPP4 at 80 μM Ap3A): 80%
- maximum aggregation ([1]; 200 nM NPP4 at 80 μM Ap3A): 90%
- platelet aggregation response of enzyme in the presence of 80 μM Ap3A (qualitative) ([1]; 80 μM Ap3A, enzyme 50-200 nM): strong primary and secondary aggregation waves
- platelet aggregation response, agent alone (qualitative) ([1]; agent alone in PRP (Ap3A up to 160 μM; NPP4 100 nM)): does not trigger platelet aggregation
- maximum catalytic turnover rate (kcat) for Ap3A ([2]; substrate Ap3A): ~4 s⁻¹
- kcat, Ap3A Hydrolysis by NPP4 ([2]; substrate Ap3A, steady state): 4.2 s^−1NPP4^−1
- Km ([2]; substrate Ap3A, steady state, read-out: KM, Ap3A Hydrolysis by NPP4): 843 µM
- maximum catalytic turnover rate (kcat) for Ap4A ([3]; substrate Ap4A): ~1 s^−l
- kcat, Ap4A Hydrolysis by NPP4 ([3]; substrate Ap4A, steady state): 0.78 s^−1NPP4^−1
- Km ([3]; substrate Ap4A, steady state, read-out: KM, Ap4A Hydrolysis by NPP4): 210 µM
